According to article PMC12828769:
pKd: −log10 of the molar value.

Target: Human Angiotensin-converting enzyme 2 (ACE2) (human)
Experiment: MST; Monolith NT.115, standard glass capillaries; ACE2 labelled with NT-647 (NHS ester); ACE2 serially diluted across 16 tubes in 10 mM phosphate buffer pH 7.4, mixed 1:1 with RBDs or RBDdopa's, 15 min at RT; 40-60% MST power; apparent KD

## Native SARS-CoV-2 RBD (Arg319-Phe541) without any mutation (domain or fragment; other documents disagree on this pair)
  pKd: 5.27
